In PMC9313494 (2022) one finds koff data, which are given here for 1 molecule.

The assay has as its target Lys-Nle peptide (norleucine (Nle) residues (Nle12 named); D-residues (D-Lys1, D-Lys8 named); terminal thiol group). As to the kind of experiment: SPR. On the technique in general: In SPR one partner is held on a chip, and binding of the other changes the refractive index at the surface.

B1: bone morphogenetic protein-2 (BMP-2) (ligand)
chain: QAKHKQRKRLKSSCKRHPLYVDFSDVGWNDWIVAPPGYHAFYCHGECPFPLADHLNSTNHAIVQTLVNSVNSKIPKACCVPTELSAISMLYLDENEKVVLKNYQDMVVEGCGCR
B1: the off-rate (koff) (in general, a measure of how fast the partners let go of each other) is 0.00973 s⁻¹.
